Test results from patent publication US20200283521A1 (GRANULAR THERAPEUTICS, published 2020).

How the values were obtained:
human C-KIT-Fc [1] = molecular target: T1, human C-KIT-Fc (human, UniProt P10721 26-524); assay: HTRF competition vs Tb-h37M IgG1
T1 construct: also called biotinylated human C-KIT-Fc; not shown: Fc part not described

[2] = molecular target: T2, cynomolgus monkey C-KIT-Fc (cynomolgus monkey); assay: HTRF competition vs Tb-h37M IgG1
T2 construct: also called cyno C-KIT-Fc

human C-KIT-Fc [3] = molecular target: T1, human C-KIT-Fc; assay: direct ELISA;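 note: Plate-coated C-KIT-Fc (1 µg/ml) probed with antibodies for 1 hr, bound IgG detected via anti-human kappa-HRP and TMB, absorbance measured at 450 nm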
[4] = molecular target: T3, human C-KIT, full length, on cells (human, UniProt P10721 26-976); assay: flow cytometry, C-KIT-transfected CHO-K1 cells, IgG1 format
T3 construct: full-length cDNA stably transfected in CHO-K1; also used here for endogenous C-KIT of TF-1 cells; also called human C-KIT+ CHO-K1 cells; C-KIT on TF-1 cells

| IC50 (human C-KIT-Fc [1]) [µg/mL] | IC50 [2] [µg/mL] | binding result (human C-KIT-Fc [3]) | binding result [4] | Binder |
| --- | --- | --- | --- | --- |
|  |  | binds | binds | TTP3 (antibody, IgG1, V domains shown, IgG1) VH: QVQLVQSGAEVKKPGASVKVSCKASGYTFTDYYMNWVRQAPGQGLEWMGRIYPGSGNTYYAQKFQGRVTMTRDTSTSTVYMELSSLRSEDTAVYYCARGVYYLDYWGQGTLVTVSS VL: DIQMTQSPSSLSASVGDRVTITCRASQGVRTNLAWFQQKPGKAPKSLIYSASSLQSGVPSRFSGSGSGTDFTLTISSLQPEDFATYYCQQYNAYPKTFGGGTKVEIK |
|  |  | binds |  | MH5.32 (antibody, IgG1, V domains shown, IgG1) VH: QVQLVQSGAEVKKPGASVKVSCKASGYTFTNYYMNWVRQAPGQGLEWMGRIYPGAGNTYYAQKFQGRVTMTRDTSTSTVYMELSSLRSEDTAVYYCARGVWYFDEWGQGTLVTVSS VL: DIQMTQSPSSLSASVGDRVTITCRASQGIRTNLAWFQQKPGKAPKSLIYAASSLQSGVPSRFSGSGSGTDFTLTISSLQPEDFATYYCQQYANYPRTFGGGTKVEIK |
|  |  | binds | binds | TTP4 (antibody, IgG1, V domains shown, IgG1) VH: QVQLVQSGAEVKKPGASVKVSCKASGYTFTDYYMNWVRQAPGQGLEWMGRIYPGSGNTYYAQKFQGRVTMTRDTSTSTVYMELSSLRSEDTAVYYCARGVYYYDYWGQGTLVTVSS VL: DIQMTQSPSSLSASVGDRVTITCRASQGVRTNLAWFQQKPGKAPKSLIYSASSLQSGVPSRFSGSGSGTDFTLTISSLQPEDFATYYCQQYNAYPHTFGGGTKVEIK |
|  |  | binds |  | MH5.36 (antibody, IgG1, V domains shown, IgG1) VH: QVQLVQSGAEVKKPGASVKVSCKASGYTFTNYYMNWVRQAPGQGLEWMGRIYPASGNTYYAQKFQGRVTMTRDTSTSTVYMELSSLRSEDTAVYYCARGVWYFDEWGQGTLVTVSS VL: DIQMTQSPSSLSASVGDRVTITCRASQGIRTNLAWFQQKPGKAPKSLIYAASSLQSGVPSRFSGSGSGTDFTLTISSLQPEDFATYYCQQYANYPRTFGGGTKVEIK |
| 0.027 | 0.059 |  |  | D-A10 (antibody, IgG1, V domains shown, IgG1; also called C-KIT-D-A10) VH: QVQLVQSGAEVKKPGASVKVSCKASGYTFTDYYMNWVRQAPGQGLEWMGRIYPGSGNTYYAQKFQGRVTMTRDTSTSTVYMELSSLRSEDTAVYYCARGVYYFDTWGQGTLVTVSS VL: DIQMTQSPSSLSASVGDRVTITCRASQGVRTNLAWFQQKPGKAPKSLIYAASSRQSGVPSRFSGSGSGTDFTLTISSLQPEDFATYYCQQYNSYPRTFGGGTKVEIK |
| 0.066 | 0.166 |  |  | C-B12 (antibody, IgG1, V domains shown, IgG1; also called C-KIT-C-B12) VH: QVQLVQSGAEVKKPGASVKVSCKASGYTFTDYYMNWVRQAPGQGLEWMGRIYPGSGNTYYAQKFQGRVTMTRDTSTSTVYMELSSLRSEDTAVYYCARGVYEFDYWGQGTLVTVSS VL: DIQMTQSPSSLSASVGDRVTITCRASQGVRNNLAWFQQKPGKAPKSLIYAASYRQSGVPSRFSGSGSGTDFTLTISSLQPEDFATYYCQQYNSYPRTFGGGTKVEIK |
|  |  | binds | binds | TTP2 (antibody, IgG1, V domains shown, IgG1) VH: QVQLVQSGAEVKKPGASVKVSCKASGYTFTDYYMNWVRQAPGQGLEWMGRIYPGSGNTYYAQKFQGRVTMTRDTSTSTVYMELSSLRSEDTAVYYCARGVYYYDYWGQGTLVTVSS VL: DIQMTQSPSSLSASVGDRVTITCRASQGIRTNLAWFQQKPGKAPKSLIYAASSLQSGVPSRFSGSGSGTDFTLTISSLQPEDFATYYCQQYNSYPHTFGGGTKVEIK |
|  |  | binds |  | MH5.29 (antibody, IgG1, V domains shown, IgG1) VH: QVQLVQSGAEVKKPGASVKVSCKASGYTFTNYYMNWVRQAPGQGLEWMGRIYPGAGNTYYAQKFQGRVTMTRDTSTSTVYMELSSLRSEDTAVYYCARGVWYYDYWGQGTLVTVSS VL: DIQMTQSPSSLSASVGDRVTITCRASQGIRTNLAWFQQKPGKAPKSLIYAASSLQSGVPSRFSGSGSGTDFTLTISSLQPEDFATYYCQQYANYPRTFGGGTKVEIK |

The remaining lines, values behind:

| Binder | IC50 (human C-KIT-Fc [1]) [µg/mL] | IC50 [2] [µg/mL] | binding result (human C-KIT-Fc [3]) | binding result [4] |
| --- | --- | --- | --- | --- |
| F-C5 (antibody, IgG1, V domains shown, IgG1; also called C-KIT-F-C5; F-05) VH: QVQLVQSGAEVKKPGASVKVSCKASGYTFTDYYMNWVRQAPGQGLEWMGRIYPGSGNTYYAQKFQGRVTMTRDTSTSTVYMELSSLRSEDTAVYYCARGVYYFDEWGQGTLVTVSS VL: DIQMTQSPSSLSASVGDRVTITCRASQGVRTNLAWFQQKPGKAPKSLIYAASSRQSGVPSRFSGSGSGTDFTLTISSLQPEDFATYYCQQYNSYPRTFGGGTKVEIK | 0.031 | 0.079 |  |  |
| MH5.31 (antibody, IgG1, V domains shown, IgG1) VH: QVQLVQSGAEVKKPGASVKVSCKASGYTFTNYYMNWVRQAPGQGLEWMGRIYPGAGNTYYAQKFQGRVTMTRDTSTSTVYMELSSLRSEDTAVYYCARGVWYFDTWGQGTLVTVSS VL: DIQMTQSPSSLSASVGDRVTITCRASQGIRTNLAWFQQKPGKAPKSLIYAASSLQSGVPSRFSGSGSGTDFTLTISSLQPEDFATYYCQQYANYPRTFGGGTKVEIK |  |  | binds |  |
| MH6 (antibody, IgG1, V domains shown, IgG1) VH: QVQLVQSGAEVKKPGASVKVSCKASGYTFTDYYMNWVRQAPGQGLEWMGRIYPGSGNTYYAQKFQGRVTMTRDTSTSTVYMELSSLRSEDTAVYYCARGVYYYDYWGQGTLVTVSS VL: DIQMTQSPSSLSASVGDRVTITCRASQGIRTNLAWFQQKPGKAPKSLIYSASSLQSGVPSRFSGSGSGTDFTLTISSLQPEDFATYYCQQYNSYPKTFGGGTKVEIK |  |  | binds | binds |
| MH5.28 (antibody, IgG1, V domains shown, IgG1) VH: QVQLVQSGAEVKKPGASVKVSCKASGYTFTNYYMNWVRQAPGQGLEWMGRIYPGTGNTYYAQKFQGRVTMTRDTSTSTVYMELSSLRSEDTAVYYCARGVWYFDEWGQGTLVTVSS VL: DIQMTQSPSSLSASVGDRVTITCRASQGIRTNLAWFQQKPGKAPKSLIYAASSLQSGVPSRFSGSGSGTDFTLTISSLQPEDFATYYCQQYANYPRTFGGGTKVEIK |  |  | binds |  |
| MH5.30 (antibody, IgG1, V domains shown, IgG1) VH: QVQLVQSGAEVKKPGASVKVSCKASGYTFTNYYMNWVRQAPGQGLEWMGRIYPGAGNTYYAQKFQGRVTMTRDTSTSTVYMELSSLRSEDTAVYYCARGVWYFDSWGQGTLVTVSS VL: DIQMTQSPSSLSASVGDRVTITCRASQGIRTNLAWFQQKPGKAPKSLIYAASSLQSGVPSRFSGSGSGTDFTLTISSLQPEDFATYYCQQYANYPRTFGGGTKVEIK |  |  | binds |  |
| C-A7 (antibody, IgG1, V domains shown, IgG1; also called C-KIT-C-A7) VH: QVQLVQSGAEVKKPGASVKVSCKASGYTFTDYYMNWVRQAPGQGLEWIGRIYPGSGNTYYAQKFQGRVTMTRDTSTSTVYMELSSLRSEDTAVYYCARGVYYFDSWGQGTLVTVSS VL: DIQMTQSPSSLSASVGDRVTITCRASQGVRNNVAWFQQKPGKAPKSLIYYASSLQSGVPSRFSGSGSGTDFTLTISSLQPEDFATYYCQQYNSYPRTFGGGTKVEIK | 0.037 | 0.081 |  |  |
| TTP6 (antibody, IgG1, V domains shown, IgG1) VH: QVQLVQSGAEVKKPGASVKVSCKASGYTFTDYYMNWVRQAPGQGLEWMGRIYPGSGNTYYAQKFQGRVTMTRDTSTSTVYMELSSLRSEDTAVYYCARGVYYYDYWGQGTLVTVSS VL: DIQMTQSPSSLSASVGDRVTITCRASQGVRTNLAWFQQKPGKAPKSLIYAASSLQSGVPSRFSGSGSGTDFTLTISSLQPEDFATYYCQQYNAYPHTFGGGTKVEIK |  |  | binds | binds |
